# Values of other authors as cited in PMC2892782.
# Target: Lys41 (UniProt position 67, TKDRCKPVNTF)
# Experiment: NMR
substance,measurement,value
Ribonuclease A (bovine pancreatic ribonuclease) (Bos taurus),pKa,8.6-9.1
